Paper PMC8304084, “A Concerted Action of UBA5 C-Terminal Unstructured Regions Is Important for Transfer of Activated UFM1 to UFC1” (International Journal of Molecular Sciences, 2021)

Molecular target: T1, UFC1 (Homo sapiens, UniProt Q9Y3C8)
T1 construct: Full length UFC1, residues 1–167; modified ubiquitin tag (Ub19) with TEV site (N, cleaved yes); made in house; host or cells: E. coli T7 Express
T1 sequence (Q9Y3C8 1-167): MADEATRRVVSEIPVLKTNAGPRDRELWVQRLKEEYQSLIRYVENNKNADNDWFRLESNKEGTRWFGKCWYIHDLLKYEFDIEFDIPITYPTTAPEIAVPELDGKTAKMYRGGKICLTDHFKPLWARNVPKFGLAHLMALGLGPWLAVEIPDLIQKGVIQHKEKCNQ
Experiment: ITC, UBA5 constructs vs UFC1
Assay type: binding
Text: To understand how the UBA5 C-terminus participates in the ufmylation cascade, we performed isothermal titration calorimetry (ITC) experiments, in which we titrated UBA5 C-terminal peptides (see Table 1) to the UBA5 AD, UFC1, UFM1 and representative LC3/GABARAP proteins (Figure 2A, Supplementary Figure S2A–D and Table 2).
To investigate if conjugation of UFM1 to the UBA5 catalytic cysteine (C250) affects the UFC1:UBA5 interactions, we prepared full length UBA5 C250K mutant and stably conjugated UFM1 to it as reported before for a number of ubiquitin-specific E2 enzymes. We compared the UFC1 spectra after addition of a twofold molar excess of FL^1–404 and FL^1–404 C250K~UFM1 constructs (Supplementary Figure S5C).
All proteins and peptides were expressed in E.Coli T7 Express (New England Biolabs GmbH, Frankfurt, Germany) cells in LB or M9 (to obtain ^15N- and ^13C,^15N-labeled polypeptides) media according to the protocol described in [33, 36]. For protein purification, bacterial cell pellets were resuspended in lysis buffer (50 mM Tris-HCl pH = 7.5, 100 mM NaCl, 5% glycerol, 5 mM PIC (protease inhibitor cocktail)) and lysed via sonication (TT13 Sonotrode, 40% amplitude, for 6 × 1 min with a 0.5/0.5-s pulse). Lysates were centrifuged for 45 min at 17,000× g at 4 °C. Supernatants were loaded onto a His Trap Fast Flow 5 mL column (GE Healthcare, München, Germany) equilibrated in loading buffer (50 mM Tris-HCl pH = 8.0, 250 mM NaCl, 1% glycerol, 20 mM imidazole). The column was washed with loading buffer for 5–10 CV and protein was eluted with elution buffer (50 mM Tris-HCl pH = 8, 250 mM NaCl, 1% glycerol, 400 mM imidazole). Simultaneous TEV cleavage (1 mg TEV protease was added to 100 mg peptides/proteins) and buffer exchange to loading buffer via dialysis was performed over night at 4 °C. After reverse IMAC, proteins were concentrated with conical concentrators (Millipore Merck, Darmstadt, Germany) and loaded on a Superdex 10/60 75 or 200 column (GE Healthcare, München, Germany) for further purification and equilibration with ITC/NMR buffer (25 mM HEPES pH = 7.5, 100 mM NaCl). For structural NMR spectroscopy, buffer containing 50 mM Tris-HCl pH = 7.5, 100 mM NaCl was used. Prior to NMR experiments, TCEP and protease inhibitors cocktail were added to the samples to final concentrations 1 and 5 mM, respectively. Purified peptides and protein were concentrated and stored at −80 °C. The protein and peptide concentrations were calculated from the UV absorption at 280 nm by Nanodrop spectrophotometer (Thermo Scientific, Langenselbold, Germany).
All ITC experiments were performed at 25 °C using a VP-ITC microcalorimeter (Malvern Panalytical Ltd., Malvern, UK). Peptides in concentration of ~400 µM were titrated into 20–25 µM solutions of corresponding binding partner at a stirring speed of 307 rpm. The raw data were corrected on the dilution heat of peptides obtained in independent experiment (titration of the peptide in syringe into the ITC/NMR buffer in the measuring cell). Pre-titration delay was set to 180 s, interval between titration steps was experimentally adjusted to avoid kinetic contribution to the observed heat effects and set to 200 s. A single ITC profile was collected for each type of interaction. The ITC data were analyzed based on a “one-site” binding model with MicroCal ITC software implemented in Origin 7.0.

Substance: R1-R2-R3^325–404: UBA5 C-terminal part, residues 325–404 (recombinant, E. coli)
- N (ITC stoichiometry, peptide vs UFC1, ± = fitting error): 1.03 ± 0.01
- affinity increase to UFC1 vs R3^388–404 (ITC, 25 °C): 3 fold
- ΔG (ITC, 25 °C, peptide vs UFC1): -7.66 kcal/mol
- −T*ΔS (ITC, 25 °C, peptide vs UFC1): -0.62 kcal/mol
- ΔS (ITC, 25 °C, peptide vs UFC1, one-site model, single profile): 2.09 cal mol^−1 K^−1
- KA*10^−6 (ITC, 25 °C, peptide vs UFC1, value is KA × 10^−6, ± = fitting error): 0.41 ± 0.02 M^−1
- Kd (ITC, VP-ITC, 25 °C, peptide ~400 µM titrated into 20–25 µM UFC1, 25 mM HEPES pH 7.5, 100 mM NaCl, one-site model, single ITC profile): 2.4 µM
- ΔH (ITC, VP-ITC, 25 °C, peptide ~400 µM titrated into 20–25 µM UFC1, 25 mM HEPES pH 7.5, 100 mM NaCl, one-site model, single ITC profile, ± = fitting error): -7.04 ± 0.07 kcal/mol
